# System: MS2 coat protein
# Experiment: apparent KD of MS2 coat protein; designed switch direction (-1 OFF switch, 1 ON switch): 1; higher = weaker reporter binding
# How it was run: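 RNA switches sharing common flanks were transcribed by stalled E. coli RNA polymerase on Illumina chips. A doubling series of SNAP-549-labelled MS2 coat protein, from 0.7 or 1.5 nM to 3 µM, was applied in Tris-HCl pH 7.5 buffer with KCl, MgCl2, BSA, DTT, tRNA and Tween-20. Each step lasted 0.8–1.5 h at the bottom of the series and 10–20 min at the top. Normalised cluster fluorescence was curve-fitted, giving apparent KD as the per-design median over clusters.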
# [1] = input ligand: microRNA oligo, concentration not stated
Sequence,apparent KD of MS2 coat protein (input ligand: FMN 200 uM) [nM],apparent KD of MS2 coat protein [1] [nM],apparent KD of MS2 coat protein (input ligand: none) [nM],"apparent KD of MS2 coat protein (Eterna round: R95, input ligand: FMN 200 uM) [nM]","apparent KD of MS2 coat protein (Eterna round: R95, input ligand: microRNA oligo, concentration not stated) [nM]","apparent KD of MS2 coat protein (Eterna round: R95, input ligand: none) [nM]"
"AAAAGAAACAUGUACCUGAGUACAUGAAAACAUGAGGAUCACCCAUGUAACAAGUUGGGUGUUUGUCUUAUAAGAAA [JL pocket 5] (Eterna round: R96, puzzle: Sensor for hsa-mir-208a)",68.7,238,231,,,
CGGGUACAUGAGGAUCACCCAUGUGGGAGGGAUGCAGGAUAUGUGGGAGGAGGGUAUGAAACAGAAGGGCAAGGAG [JR_SS!_Sub012] (puzzle: Same State 1),,,,46.7,48.9,65.5
"GCUGCGAUUAACGCCUACAUGAGGAUCACCCAUGUAUGUAGGCAGGAUAUCGUUUGCUUUGCAAACGAGAAGGGCUGUAGUAGC [salish99_SSNG3_R04_004] (Eterna round: R96, puzzle: Same State NG 3)",39.4,68.4,86.9,,,
"UCGUUCAUCGUAGGAUAUCUAGGAUAUGAACGAGGAUCACCCGAGCAGCAUCAGCGCAUCAGAGGAGAGAAGGACGCUGAUGCG [pwkr ssNG2 2F5 2FMN.20] (Eterna round: R96, puzzle: Same State NG 2)",30,8.83,84.8,,,
"UUAUCAUUGCAAGGAUAUUGAUUACAUGAGGAUCACCCAUGUUAAUGAACACUAUGUACUACUAACAAGAAGGUGCUAUAAAUU [JR_SSNG2_Sub041] (Eterna round: R96, puzzle: Same State NG 2)",35.1,28,34.3,,,
"AGCUAUUAAUCAGGAUAUGGUGACAUGAGGAUCACCCAUGUAUUGAUGAUUAAAUGUGGUCACUACCAGAAGGGAUUACUAACA [SameState NG2 #50] (Eterna round: R96, puzzle: Same State NG 2)",34.2,221,260,,,
"GGAGCCGGUACUGAGGAUAUUCAUAUUAAAACAUGAGGAUCACCCAUGUAGGCCAGAAGGCCUUGGGAGAAGGCAGGCCAGCUCG [Atgexeedri - 4] (Eterna round: R96, puzzle: Same State 2)",24.7,177,268,,,
"AUAAAACAUGAGGAUCACCCAUGUAGACGGAGAAACGUCACAUAGGAUAUAGUCAGCGGCGUUGACUAGAAGGGUGGUAGAAAA [Qubeedbi] (Eterna round: R96, puzzle: Same State NG 3)",286,97.4,251,,,
"AAAGAAACAUGAGGAUCACCCAUGUACCGCGGAAUGUGUGCACAGGAUAUGUACAGCUUUUGCUUACAGAAGGGUGCGCCCGUG [Enorso] (Eterna round: R96, puzzle: Same State NG 3)",20.8,38.7,70,,,
"AAACGGCCCAACGAAGGGCCACAUGAGGAUCACCCAUGUACAUAGGAUAUCACGCCAACAAAGCGUGAGAAGGGUGAUUAAAAC [Lezaer] (Eterna round: R96, puzzle: Same State NG 3)",270,11.6,163,,,
"AACAGUCGGCGAGGAUAUGGACGGACAGGCUUGCCUGUGCGGCUCACAUGAGGAUCACCCAUGUUCUAGAAGGCGCCACUGAGA [Atteve] (Eterna round: R96, puzzle: Same State NG 2)",21.3,50,81.7,,,
"UGGUGUAACAUGAGGAUCACCCAUGUCACAACCCGGAUAGAGUAGGAUAUGGGCUGAUCACGCAUCCAGAAGGGCUCAUACUUU [Eternabot solution 19] (Eterna round: R96, puzzle: Same State NG 3)",19.7,14.3,16.8,,,
"UCUGCAAUUAACGCCUACAUGAGGAUCACCCAUGUAUGUAGGCAGGAUAUCGUUUGCUUUGCAAACGAGAAGGGCUGUAGUAGC [salish99_SSNG3_R04_001] (Eterna round: R96, puzzle: Same State NG 3)",52.4,49.2,61.6,,,
"AGGAGACAUGAGGAUCACCCAUGUACUUCAUAAGGAGAGAACGAGGAUAUGUAGAGAGAGAGGGAACAGAAGGUGUGAGAGGAA [Default title] (Eterna round: R96, puzzle: Same State NG 3)",18.7,16.2,18.7,,,
"GGUACCAUCACAGGAUAUGCUAUCCUUUGGGUAGCAGAAGGGUGAUACAUGAGGAUCACCCAUGUGGUGCCAGGGCGUGAGCCC [JL SSNG1 1.91] (Eterna round: R96, puzzle: Same State NG 1)",901,44.5,331,,,
"CGGGUGAUCGUAGGAUAUCUAGGAUAUGAACGAGGAUCACCCGAGCAGCAUCAGCGCAUCAGAGGAGAGAAGGACGAUCAUGCG [pwkr ssNG2 2F5 2FMN.7] (Eterna round: R96, puzzle: Same State NG 2)",326,12.9,59.1,,,
"AGUAUACAUGAGGAUCACCCAUGUCUGUAACGGACAGGAUAUGCGUUGCAUCACUGUAAUGCAGAAGGGUCCUGUA [Same State 1 - Mod of JMF's solution 1 v.2] (Eterna round: R96, puzzle: Same State 1)",50.5,148,202,,,
"GUGGUCAGACAUGAGGAUCACCCAUGUGGAAUAAAUAAGGCAUAGGAUAUGAAAUAUAGGAUAUAUCAGAAGGAUGGGUUGGUG (Eterna round: R96, puzzle: Same State NG 3)",,131,,,,
"UUGAAGAAUUAAGGAUAUCGAGUACAUAUGUUAAACAUGAGGAUCACCCAUGUGGGUUGCGGUAUCGAGAAGGUAAAUUACAAG [JL SSNG2 1.42] (Eterna round: R96, puzzle: Same State NG 2)",30.2,25.6,36.5,,,
"CUGUAUCACGGAGGAUAUGGGCUGAGACCAGGGCAACCCUGGUCAACAUGAGGAUCACCCAUGUCCCAGAAGGCCGCGAUGCUA [Geisorqu] (Eterna round: R96, puzzle: Same State NG 2)",23.8,82.9,137,,,
